Assay results reported in patent US20100081612A1 (GENERAL HOSPITAL, published 2010).
Like-named read-outs stand apart in the source and are kept apart here. Where no end group is shown, it is not given here. [ ]: non-standard residue; d: D form. Gly(1-amidinopiperidin-4-yl) = N=C(N)N1CCC([C@H](N)C(=O)O)CC1; Cha = N[C@@H](CC1CCCCC1)C(=O)O; Nle = CCCC[C@H](N)C(=O)O

T1: wild-type human PTHR (human, UniProt Q03431 27-593)
T1 construct: whole, on cells; also called PTHR-WT; intact PTHR
T1 sequence (looked up): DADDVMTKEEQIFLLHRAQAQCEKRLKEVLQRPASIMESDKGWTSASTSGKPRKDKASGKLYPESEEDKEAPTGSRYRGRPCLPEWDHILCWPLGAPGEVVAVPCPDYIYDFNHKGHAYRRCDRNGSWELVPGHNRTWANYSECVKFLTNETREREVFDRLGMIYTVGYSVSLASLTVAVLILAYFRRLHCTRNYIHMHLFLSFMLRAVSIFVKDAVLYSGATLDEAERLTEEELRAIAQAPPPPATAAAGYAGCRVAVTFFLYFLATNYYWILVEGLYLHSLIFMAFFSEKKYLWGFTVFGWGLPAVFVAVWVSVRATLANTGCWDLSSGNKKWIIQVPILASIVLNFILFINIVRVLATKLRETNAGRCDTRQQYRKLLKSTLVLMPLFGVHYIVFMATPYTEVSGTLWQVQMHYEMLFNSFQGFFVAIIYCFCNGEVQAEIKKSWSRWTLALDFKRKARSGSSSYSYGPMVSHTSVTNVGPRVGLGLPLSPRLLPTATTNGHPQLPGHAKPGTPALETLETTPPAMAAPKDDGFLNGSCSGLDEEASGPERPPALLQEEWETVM


Columns and labels:
PTHR-delNt (human) = PTHR-delNt (human) (UniProt Q03431); assay: competition binding, COS-7 membranes, 125I-[Aib1,3,M]PTH(1-15) tracer
wild-type human PTHR [1] = molecular target: T1, wild-type human PTHR; assay: competition binding, HKRK-B7 cells, 125I-PTH(1-34) tracer
Description: (§1) Receptor binding—Binding to the wild-type human PTHR in intact HKRK-B7 cells and ROS 17/2.8 cells was assessed using ¹²⁵I-PTH(1-34) as a tracer radioligand, as described (Shimizu, M., (2001) Endocrinology 142:3068-3074). In brief, the cells in 24-well plates (about 500,000 cells per well) were incubated in binding buffer containing radioligand (about 100,000 cpm per well) with or without unlabeled peptide ligand (3×10⁻⁹ to 1×10⁻⁵ M) for four hours at 15° C. The binding mixture was then removed by aspiration, the cells were rinsed three times with binding buffer, lysed in 1 M NaOH, and the entire lysate was counted for gamma-irradiation in a gamma counter. Binding to PTHR-delNt in COS-7 cell membranes was assessed in 96-well, vacuum filtration plates (Multiscreen-Durapore HV, […], Millipore Corp., Millford, Mass.) using ¹²⁵I-[Aib^{1,3},M]PTH(1-15)NH₂ as a tracer radioligand, as described (Dean, T., (2006) Mol Endocrinol 20:931-942). In brief, cell membranes (20 μg/well) were incubated in membrane binding buffer containing radioligand (30,000 cpm/well) with or without unlabeled peptide ligand (3×10⁻⁹ to 1×10⁻⁵ M) for 90 minutes at 21° C. The plates were then subject to rapid vacuum filtration, the filters were washed once with buffer, detached from the plate and counted for gamma-irradiation in a gamma counter. Non-specific binding was defined as the binding observed in the presence of 1×10⁻⁶ M PTH(1-31)NH₂ for HKRK-B7 and ROS 17/2.8 cells, and 1×10⁻⁶ M [Aib^{1,3},M]PTH(1-15)NH₂ for PTHR-delNt. Specifically bound radioactivity was calculated as a percentage of the radioactivity specifically bound in the absence of competing ligand.
Cyclohexylalanine and glutamate substitutions were introduced into [Ala¹,Arg¹⁹]hPTH(1-31)NH₂. The helical residue values were calculated from [θ]₂₂₂, the mean-residue elipticities observed in the CD spectra at 222 nm. Competition binding studies were performed in intact HKRK-B7 cells stably transfected with the hPTHR using ¹²⁵I-[Nle^{8,21},Tyr³⁴]rPTH(1-34)NH ₂ tracer radioligand, and in membranes prepared from COS-7 cells transiently transfected with hPTHR-delNt and a negative-dominant Gαs using ¹²⁵I-[Aib^{1,3},Nle⁸,Gln¹⁰,Har¹¹,Ala¹²,Trp¹⁴,Tyr¹⁵]rPTH(1-15)NH₂ tracer radioligand. Binding values (nM) are means (+/−s.e.m.) of data from the number of experiments indicated (n).

wild-type human PTHR [2] = molecular target: T1, wild-type human PTHR; assay: as above; remark: listed apart in the source
wild-type human PTHR [3] = molecular target: T1, wild-type human PTHR; assay: as above; remark: listed apart in the source
Description: as §1
Alanine-Scan of the PTH(17-31) domain—Each residue in the (17-31) region of PTH(1-31)NH₂ was individually replaced with alanine and the effects of the substitutions on binding to the intact human PTHR stably expressed in HKRK-B7 cells was assessed. Competition binding studies were performed using whole cells and ¹²⁵I-PTH(1-34) (¹²⁵I-[Nle^{8,21},Tyr³⁴]ratPTH(1-34)NH₂) as a tracer radioligand.

| Binder | IC50 (PTHR-delNt (human)) [nM] | IC50 (wild-type human PTHR [1]) [nM] | fold difference of IC50 from PTH(1-31)NH2 (PTHR-delNt (human)) [fold] | IC50 (wild-type human PTHR [3]) [nM] | further results |
| --- | --- | --- | --- | --- | --- |
| AVSEIQLMHNLGKHLN[Cha]MRRVEWLRKKLQDV-NH2 (N-terminus assumed; SMILES CC[C@H](C)[C@H](NC(=O)[C@H](CCC(=O)O)NC(=O)[C@H](CO)NC(=O)[C@@H](NC(=O)[C@H](C)N)C(C)C)C(=O)N[C@@H](CCC(N)=O)C(=O)N[C@@H](CC(C)C)C(=O)N[C@@H](CCSC)C(=O)N[C@@H](Cc1c[nH]cn1)C(=O)N[C@@H](CC(N)=O)C(=O)N[C@@H](CC(C)C)C(=O)NCC(=O)N[C@@H](CCCCN)C(=O)N[C@@H](Cc1c[nH]cn1)C(=O)N[C@@H](CC(C)C)C(=O)N[C@@H](CC(N)=O)C(=O)N[C@@H](CC1CCCCC1)C(=O)N[C@@H](CCSC)C(=O)N[C@@H](CCCNC(=N)N)C(=O)N[C@@H](CCCNC(=N)N)C(=O)N[C@H](C(=O)N[C@@H](CCC(=O)O)C(=O)N[C@@H](Cc1c[nH]c2ccccc12)C(=O)N[C@@H](CC(C)C)C(=O)N[C@@H](CCCNC(=N)N)C(=O)N[C@@H](CCCCN)C(=O)N[C@@H](CCCCN)C(=O)N[C@@H](CC(C)C)C(=O)N[C@@H](CCC(N)=O)C(=O)N[C@@H](CC(=O)O)C(=O)N[C@H](C(N)=O)C(C)C)C(C)C) [[Ala^1,Arg^19]hPTH(1-31)NH2 Ser^17→Cha] | 179 | 112 |  |  | fold change in binding affinity vs [Ala^1,Arg^19]PTH(1-31)NH2 (PTHR-delNt (human)): < 3 fold; fold change in binding affinity vs [Ala^1,Arg^19]PTH(1-31)NH2 (wild-type human PTHR [2]): ≤ 6 fold |
| SVSEIQLMHNLGKHLNSMEQVEWLRKKLQDV-NH2 [PTH(1-31)NH2 Arg^20→Gln] | 10300 |  | < 4 | > 10000 |  |
| SVSEIQLMHNLGKHLNSMEEVEWLRKKLQDV-NH2 [PTH(1-31)NH2 Arg^20→Glu] | 14700 |  |  | > 10000 | fold reduction in binding affinity vs PTH(1-31)NH2 (PTHR-delNt (human)): 4 fold |
| SVSEIQLMHNLGKHLNSMEKVEWLRKKLQDV-NH2 [PTH(1-31)NH2 Arg^20→Lys] | 7100 |  | < 4 | > 10000 |  |
| AVSEIQLMHNLGKHLNSMRREEWLRKKLQDV-NH2 [[Ala^1,Arg^19]hPTH(1-31)NH2 Val^21→Glu] | 1620 | 447 |  |  | fold reduction in binding affinity vs [Ala^1,Arg^19]PTH(1-31)NH2 (PTHR-delNt (human)): 4 fold; fold reduction in binding affinity vs [Ala^1,Arg^19]PTH(1-31)NH2 (wild-type human PTHR [2]): 12 fold |
| SVSEIQLMHNLGKHLNSMRRVEWLRKKLQDV-NH2 [PTH(1-31)NH2 Glu^19→Arg] | 1230 |  |  | 42 | fold enhancement in binding affinity vs PTH(1-31)NH2 (wild-type human PTHR [2]): ≤ 2 fold |
| AVSEIQLMHNLGKHLNSMRRVEWLREKLQDV-NH2 [[Ala^1,Arg^19]hPTH(1-31)NH2 Lys^26→Glu] | 832 | 60 |  |  |  |
| AVSEIQLMHNLGKHLNSMRRVEWLRKELQDV-NH2 [[Ala^1,Arg^19]hPTH(1-31)NH2 Lys^27→Glu] | 1270 | 156 |  |  |  |
| SVSEIQLMHNLGKHLNSMRRVAWLRKKLQDV-NH2 [PTH(1-31)NH2 Glu^19,22→Arg,Ala] | 360 |  |  | 54 |  |
| AVSEIQLMHNLGKHLNSMRRVEWLEKKLQDV-NH2 [[Ala^1,Arg^19]hPTH(1-31)NH2 Arg^25→Glu] | 1630 | 189 |  |  | fold reduction in binding affinity vs [Ala^1,Arg^19]PTH(1-31)NH2 (PTHR-delNt (human)): 4 fold |
| SVSEIQLMHNLGKHLNSMARVAWLRKKLQDV-NH2 [PTH(1-31)NH2 Glu^19,22→Ala,Ala] | 619 |  |  | 49 |  |
| SVSEIQLMHNLGKHLNSMEXVEWLRKKLQDV (citrulline (Cit) at 20; C-terminal amide) [PTH(1-31)NH2 Arg^20→Cit] | 10600 |  | < 4 | 11900 | fold reduction in binding affinity vs PTH(1-31)NH2 (wild-type human PTHR [2]): ~200 fold |
| SVSEIQLMHNLGKHLNSME[Nle]VEWLRKKLQDV-NH2 (N-terminus assumed; SMILES CCCC[C@H](NC(=O)[C@H](CCC(=O)O)NC(=O)[C@H](CCSC)NC(=O)[C@H](CO)NC(=O)[C@H](CC(N)=O)NC(=O)[C@H](CC(C)C)NC(=O)[C@H](Cc1c[nH]cn1)NC(=O)[C@H](CCCCN)NC(=O)CNC(=O)[C@H](CC(C)C)NC(=O)[C@H](CC(N)=O)NC(=O)[C@H](Cc1c[nH]cn1)NC(=O)[C@H](CCSC)NC(=O)[C@H](CC(C)C)NC(=O)[C@H](CCC(N)=O)NC(=O)[C@@H](NC(=O)[C@H](CCC(=O)O)NC(=O)[C@H](CO)NC(=O)[C@@H](NC(=O)[C@@H](N)CO)C(C)C)[C@@H](C)CC)C(=O)N[C@H](C(=O)N[C@@H](CCC(=O)O)C(=O)N[C@@H](Cc1c[nH]c2ccccc12)C(=O)N[C@@H](CC(C)C)C(=O)N[C@@H](CCCNC(=N)N)C(=O)N[C@@H](CCCCN)C(=O)N[C@@H](CCCCN)C(=O)N[C@@H](CC(C)C)C(=O)N[C@@H](CCC(N)=O)C(=O)N[C@@H](CC(=O)O)C(=O)N[C@H](C(N)=O)C(C)C)C(C)C) [PTH(1-31)NH2 Arg^20→Nle] | 10700 |  | < 4 | 15400 | fold reduction in binding affinity vs PTH(1-31)NH2 (wild-type human PTHR [2]): ~200 fold |
| SVSEIQLMHNLGKHLNSME[Gly(1-amidinopiperidin-4-yl)]VEWLRKKLQDV-NH2 (N-terminus assumed; SMILES CC[C@H](C)[C@H](NC(=O)[C@H](CCC(=O)O)NC(=O)[C@H](CO)NC(=O)[C@@H](NC(=O)[C@@H](N)CO)C(C)C)C(=O)N[C@@H](CCC(N)=O)C(=O)N[C@@H](CC(C)C)C(=O)N[C@@H](CCSC)C(=O)N[C@@H](Cc1c[nH]cn1)C(=O)N[C@@H](CC(N)=O)C(=O)N[C@@H](CC(C)C)C(=O)NCC(=O)N[C@@H](CCCCN)C(=O)N[C@@H](Cc1c[nH]cn1)C(=O)N[C@@H](CC(C)C)C(=O)N[C@@H](CC(N)=O)C(=O)N[C@@H](CO)C(=O)N[C@@H](CCSC)C(=O)N[C@@H](CCC(=O)O)C(=O)N[C@H](C(=O)N[C@H](C(=O)N[C@@H](CCC(=O)O)C(=O)N[C@@H](Cc1c[nH]c2ccccc12)C(=O)N[C@@H](CC(C)C)C(=O)N[C@@H](CCCNC(=N)N)C(=O)N[C@@H](CCCCN)C(=O)N[C@@H](CCCCN)C(=O)N[C@@H](CC(C)C)C(=O)N[C@@H](CCC(N)=O)C(=O)N[C@@H](CC(=O)O)C(=O)N[C@H](C(N)=O)C(C)C)C(C)C)C1CCN(C(=N)N)CC1) [PTH(1-31)NH2 Arg^20→PipGly] | 6600 |  | < 4 | 14100 | fold reduction in binding affinity vs PTH(1-31)NH2 (wild-type human PTHR [2]): ~200 fold |
